Results as given in patent publication US20230382979A1 (ADAPTIVE BIOTECHNOLOGIES, published 2023).
Residue numbers refer to the chain shown, from its start.

Legend:
[1] = biological target: SARS-CoV-2 spike protein on live virus, strain USA-WA1/2020 (SARS-CoV-2, WA01/2020 strain, UniProt P0DTC2 14-1273); assay: cell-based or functional assay
[2] = biological target: T1, Receptor-binding domain (RBD) of the SARS-CoV-2 spike protein, WA01/2020 strain (SARS-CoV-2, WA01/2020 strain, UniProt P0DTC2 319-541); assay: dose-response ELISA on coated antigen
[3] = biological target: T1, Receptor-binding domain (RBD) of the …; assay: ELISA, antibody blocks RBD binding to human ACE2
[4] = biological target: T1, Receptor-binding domain (RBD) of the …; assay: SPR (Biacore 8K), antigen immobilized, antibody injected
[5] = biological target: SARS-CoV-2 spike protein, B1.1.7 (alpha variant), borne on lentiviral pseudovirus (SARS-CoV-2, B1.1.7); assay: cell-based or functional assay

B1: antibody 1213 (antibody, V domains shown)
VH: QMQLVQSGAEVKKTGSSVKVSCEASENTFTNRYLHWVRQAPGQALEWMGWITPFQGNTHYAQKFQDRVTITRDRSMNTVYMELSSLRSEDTAIYYCASGGQYGPGSYYFEFWGQGTLVTVSS
VL: EIVMTQSPATLSVSPGERATLSCRASQSIRNNLAWYRQKPGQAPRLLIYGASTRAAGVPARFSGSGSGTEFTLTISSLQSEDFAVYYCQQYINWPPLTFGGGTKVEIK
For B1, the “Live Neut, WA1/2020 IC50 (pM)” value [1] was 2590 pM, the EC50 [2] was 0.051 nM and the IC50 [3] was 7.74 nM. The Kd [4] was 1.72 nM.

B2: antibody 1227 (antibody, V domains shown)
VH: B1 VH with E26G, N27Y, H59N, R74M, I93K, P104A, F109L, F111D
VL: B1 VL with I29V, N31S, A56T, K104R
In the case of B2, the “Live Neut, WA1/2020 IC50 (pM)” value [1] is reported as 1490 pM, the EC50 [2] is reported as 0.107 nM and the IC50 [3] is reported as 14.5 nM. For the same binder, the Kd [4] was 2.74 nM.

B3: antibody 935 (antibody, V domains shown)
VH: EVQLVESGGGLVQPGGSLRLSCAASGFTVSSNYMSWVRQAPGKGLEWVSVIYSGGSTFYADSVKGRFTISRDNSRNTLYLQMNSLRAEDTAVYYCARDWGEFFFDFWGQGALVTVSS
VL: EIVLTQSPGTLSLSPGERATLSCRASQTISSSYLAWYQQKPGQAPRLLISGASSRATGIPDRFSGSGSGTDFTLTISRLEPEDFAVYYCQQYGSSPRTFGQGTNVEIK
B3 was tested, and the “Pseudo Neut, B1.1.7 IC50 (pM)” value [5] was 1170 pM, the “Live Neut, WA1/2020 IC50 (pM)” value [1] was 64 pM and the EC50 [2] was 0.024 nM. For the same binder, the IC50 [3] was 0.83 nM and the Kd [4] was 0.406 nM.

B4: antibody 1671 (antibody, V domains shown)
VH: EVQLVESGGGLVKPGGSLRLSCAASGFTFSTYNMNWVRQAPGKGLEWVSSISSNSNYIYYADSMKGRFTISRDNAKNSLYLQMNSLRAEDTAVYYCARDMDPLPYFDWLLYAFDVWGQGTMVTVSS
VL: B3 VL with T28S, I29V, S31G, S50Y, S95P, P96I, R97F, Q101P, N104K, E106D
For B4, the “Live Neut, WA1/2020 IC50 (pM)” value [1] was 9 pM.

B5: antibody 2025 (antibody, V domains shown)
VH: QVQLVQSGAEVKKPGASVKVSCKVSGYTLIELSMHWVRQAPGKGLEWMGGFDPEDVETIYAQKFQGRVTMTEDTSTDTAYMELSSLRSEDTAVYYCATAYAVQWRGMIGYWGQGTLVTVSS
VL: QSALTQPASVSGSPGQSITISCTGTSSDVGSYNLVSWYQQHPGKAPKLMIYEVSKRPSGVSNRFSGSKSGNTASLTISGLQAEDEADYYCSSYAGSSTFSYVFGTGTKVTVL
In the case of B5, the “Live Neut, WA1/2020 IC50 (pM)” value [1] is reported as 118 pM, the EC50 [2] is reported as 0.113 nM and the Kd [4] is reported as 7.13 nM.

B6: antibody 2080 (antibody, V domains shown)
VH: QVQLQQWGAGLLKPSETLSLTCAVYGGSFSGYYWSWIRQPPGKGLEWIGRINDIGSTDYNPSLKSRVTISVDTSKNQFSLKLTSVTAADTAVYYCAREPFDSEGTFDYWGQGTLVIVSS
VL: DIQMTQPPSTLSASVGDRVTITCRASQSISRWLAWYRQKPGKAPKLLIYDASSLQSGVPSRFSGSGSGTEFTLTISSLQPDDLATYYCQQYNTYPYTFGQGTKLEIK
B6 was tested, and the “Live Neut, WA1/2020 IC50 (pM)” value [1] was 169 pM.

B7: antibody 937 (antibody, V domains shown)
VH: EVQLVESGGGLVQPGRSLRLSCAASGFTFDDYAMHWVRQAPGKGLEWVSGISWNSGSIGYADSVKGRFTISRDNAKNSLYLQMNSLKPEDTALYYCAKSTTSCYNGSQCPTKRPKPLESWGQGTLVIVSA
VL: DIQMTQSPSTLSAFVGDRVTITCRASQSINNWLAWYQQKPGEVPKLLIYKASSLENGVPSRFSGSGFGTEFTLTISSLQPDDFAIYYCQQYYSHSHTFGQGTKLEIK
With B7 the “Live Neut, WA1/2020 IC50 (pM)” value [1] was 140 pM.

B8: antibody 767 (antibody, V domains shown)
VH: QVQVVQSGAEVKKPGASVKVSCTASGHTFTGYAIHWVRQAPGQRLEWMGLINAGGIYRTYSQRFQGRVTITRDTSASTAYMELTGLTSEDTAVYYCARANYGSGSFSDHWGQGTLVTVSS
VL: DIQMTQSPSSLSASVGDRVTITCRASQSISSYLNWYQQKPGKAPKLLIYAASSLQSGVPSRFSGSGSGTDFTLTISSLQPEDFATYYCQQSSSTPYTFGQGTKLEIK
In the case of B8, the “Live Neut, WA1/2020 IC50 (pM)” value [1] is reported as 1730 pM, the EC50 [2] is reported as 3.47 nM and the IC50 [3] is reported as 20.9 nM. The Kd [4] was 24.3 nM.

B9: antibody 1679 (antibody, V domains shown)
VH: QITLKESGPTLVKPTQTLTLTCTFSGFSLSTVGVGVAWIRQPPGKALEWLALIYWDDDKRYSPSLKSRLTITKDTSKNHVVLTMTNMDPVDTATYYCAHHIIAALVDVWGKGTTVTVSS
VL: QSALTQPASVSGSPGQSITISCTGTSSDVGGNNYVSWYQHHPGEAPKLMIYEVSNRPSGVSNRFSGSKSGNTASLTISGLQAEDEADYYCSSYTTSSTLVVFGGGSKLTVL
In the case of B9, the “Live Neut, WA1/2020 IC50 (pM)” value [1] is reported as 19 pM, the EC50 [2] is reported as 0.003 nM and the IC50 [3] is reported as 0.07 nM. The Kd [4] was 1.01 nM.

B10: antibody 2432 (antibody, V domains shown)
VH: QVQLVQSGAEVKKPGSSVKVSCKASGDTFSSYAISWVRQAPGQGLEWLGGIIPIFGSADYAQKFQGRVTITADEFTSTAYMELSSLRSEDTAVYFCAREKYGDYGEGPLYNFDYWGQGTLVTVSS
VL: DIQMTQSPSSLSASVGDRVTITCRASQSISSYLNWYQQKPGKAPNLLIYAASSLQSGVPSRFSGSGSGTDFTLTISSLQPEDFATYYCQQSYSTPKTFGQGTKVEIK
With B10 the “Live Neut, WA1/2020 IC50 (pM)” value [1] was 26 pM.

B11: antibody 1231 (antibody, V domains shown)
VH: QVQLVQSGSELKKPGASVKVSCTGYGYTFTSYAMNWVRQAPGQGLEWMGWINTNTGHPAYAQGFTGRFVFSLDSSVSTAYLQISSLKAEDTAVYYCATTIRAGGYFDFWGQGTLVTVSS
VL: DIQLTQSPSFLSASVGDRVTITCRASQGISSYLAWFQQKPGKAPKLLIYVVSILQSGVPSRFSGSGSGTEFTLTISSLQPEDFATYYCQQLNSYPYTFGQGTKLEIK
B11 was tested, and the “Live Neut, WA1/2020 IC50 (pM)” value [1] was 9510 pM, the EC50 [2] was 0.018 nM and the IC50 [3] was 3.69 nM. It also gave a Kd [4] of 2.54 nM.

B12: antibody 2606 (antibody, V domains shown)
VH: EVQLVESGGGLVKPGGSLRLSCAASGFTFSSYSMNWVRQAPGKGLEWVSSITSSSGYMYYADSVKGRFTISRDNAKNSLYLQLNSLRAEDTAVYYCAKDSAFDLWEVRSYYYVMDVWGQGTTVTVSS
VL: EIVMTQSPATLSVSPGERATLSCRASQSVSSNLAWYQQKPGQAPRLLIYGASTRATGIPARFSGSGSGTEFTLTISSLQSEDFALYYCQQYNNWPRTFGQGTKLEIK
In the case of B12, the “Live Neut, WA1/2020 IC50 (pM)” value [1] is reported as 474 pM.

B13: antibody 1439 (antibody, V domains shown)
VH: QVQLQESGPGLVKPSETLSLTCTVSGDSISTYYWSWIRQPPGKGLEWIGYIHYSGSTNYNPSLKSRVAVSVDTSKNQFSLKLSSVTAADTAVYYCARGGGVFGVVINFDYWGQGILVTVSS
VL: NFMLTQPYSVSESPGKTVTISCTRSSGSIASNYVQWYQQRPGSAPTTVIYEDNQRPSGVPDRFSGSIDSSSNSASLTISGLKTEDEADYYCQSRDSSNPVVFGGGTKLTVL
Work on B13 yielded an EC50 [2] of 0.0099 nM, an IC50 [3] of 0.117 nM and a Kd [4] of 0.0176 nM.

B14: antibody 2598 (antibody, V domains shown)
VH: QVQLQESGPGLVKPSGTLSLTCVVSGGSISSSNWWSWVRQPPGKGLEWIGETFHSGSFNYNPSLKSRVTISVDKSKNQFSLKLSSVTAADTAIYYCATTRVGYEGHFYYYGMDVWGQGTTVTVSS
VL: DIQMTQSPSSVSASVGDRVTITCRASQGISSWLAWYQQKPGKAPKLLIYAASSLQSGVPSRFSGSGSGTDFTLTISSLQPEDFATYYCQQANRFPWTFGQGTKVEIK
With B14 the “Live Neut, WA1/2020 IC50 (pM)” value [1] was 586 pM.

B15: antibody 941 (antibody, V domains shown)
VH: QVQLVQSGAEVKKPGSSVKVSCKASGGTFSNSAINWVRQAPGQGLEWMGGIIPLFGAADYAQKFQARVTITADKSTTTSYMELSSLRSEDTAVYYCARDTLEHDDVWGNFRLSLPLSFWGQGTLVTVSS
VL: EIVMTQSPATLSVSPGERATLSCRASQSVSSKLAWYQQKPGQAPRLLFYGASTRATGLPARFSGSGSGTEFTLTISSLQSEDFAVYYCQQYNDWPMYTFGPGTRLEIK
B15 was tested, and the “Pseudo Neut, B1.1.7 IC50 (pM)” value [5] was 533 pM, the “Live Neut, WA1/2020 IC50 (pM)” value [1] was 24 pM and the EC50 [2] was 0.024 nM. It also gave an IC50 [3] of 0.96 nM and a Kd [4] of 0.062 nM.

B16: antibody 2646 (antibody, V domains shown)
VH: QVQLVQSGAEVKKPGASVKVSCKVSGYTLTELSIHWVRQAPGKGLEWMGGFDPEDAETIYAQKFQGRVTMTEDTSTDTAYMELSSLRSEDTAVYYCATATAVAGTVFNYQYHYGLDFWGQGTTVTVSS
VL: not shown
For B16, the “Live Neut, WA1/2020 IC50 (pM)” value [1] was 19 pM.
